From article PMC6743362 come the findings set out here.

In the experiment the target is microtubules (MT fraction from mouse brain) (mouse (endogenous in mouse brain)) (UniProt P68369). The experiment is described as follows: co-sedimentation.

“recombinant human tau lacking both PRR2 and MTBD (ΔPRR2-MTBD) (from UniProt P10636-6 1-383) (natural protein)”: the MT-bound fraction amounted to 0.059 and the MT-unbound fraction was determined as 0.941. The substance “recombinant human tau lacking the proline-rich region 2 (ΔPRR2) (from UniProt P10636-6 1-383) (natural protein)” came in with an MT-bound fraction of 0.839 and an MT-unbound fraction of 0.161. In the case of “recombinant human tau, 0N4R variant (WT tau) (from UniProt P10636-6 1-383) (natural protein)”, the MT-bound fraction turned out to be 0.989.
